Key:
[1] = pH activity profile of the epoxide hydrolase (FIG. 5); type: biochemical; conditions: pH between 7.0 and 10 (FIG. 5)
Source text: The isolated and purified epoxide hydrolase amino acid sequence according to the invention is also characterised by an advantageous pH activity profile having a high enzymatic activity (more than 80% of the optimum enzyme activity) between 7.0 and 10, preferably between 7.5 and 9.5 (see FIG. 5).
FIG. 5 represents the relative enzymatic activity of the enzyme according to the invention.
This enzymatic activity is advantageously maintained constant at a pH higher than 7, preferably at a pH comprised between 7.0 and 10, more preferably at a pH comprised between 7.5 and 9.5.

[2] = Determination of the cis-epoxysuccinate-hydrolase activity (L-tartaric acid formed, HPLC); type: biochemical; conditions: cells of Escherichia coli DH10B containing plasmid pREHXS, overnight culture; 37° C., pH 8.0; activity = amount of L(+)-tartaric acid formed in a day by 1 gram of dried cells
Experimental: The enzymatic reaction is performed at 37° C. in a final volume of 9.3 ml that contains the following components: 0.7 ml of 0.1N Tris.HCl buffer pH 8.0, 2.6 ml of a 1.14% Triton X-100 solution, 5.0 ml of a 30% sodium cis-epoxysuccinate solution and 1.0 ml of the cell suspension. The reaction is stopped by diluting the mixture between 100 and 500 times with H2O acidified to pH 2.2 with H3PO4.
The amount of L-tartaric acid formed during the reaction is determined by HPLC at room temperature on a Vydac C18 column (cat no. 201HS3410) with a flow rate between 400 and 600 μl/min and a sample volume of 20 μl. The solvent is the same as the one used to dilute the samples. The detection of cis-epoxysuccinate and tartaric acid occurs at 210 nm.
Activity is expressed as the amount of L(+)-tartaric acid formed in a day by 1 gram of dried cells.
The Escherichia coli strain DH10B containing the plasmid pREHXS is cultivated overnight in 2×LB medium (Yeast Extract 1%, Bacto-tryptone 2%, NaCl 2%) supplemented with 100 μg/ml of ampicillin. The same strain with the pBluescriptSK(+) plasmid without insert is used as a control.
The activity of the cis-epoxysuccinate hydrolase is determined in the cells collected from the two cultures using the protocol described in example 1. No activity could be detected in the control. About 150 units is present in the strain expressing the cis-epoxysuccinate gene.

- activity of the cis-epoxysuccinate hydrolase [2]: About 150 units
B1: cis-epoxysuccinate hydrolase: 253 amino acid, 28 kDa epoxide hydrolase of Rhodococcus rhodochrous LMGP-18079, expressed in E. coli from plasmid pREHXS (protein)
chain: MQLNNANDNTQFRALLFDVQGTLTDFRSTLIEHGLSILGDRVDRELWEELVDQWRGCYRDELDSLVKQEKWRSVRAVYRDSLINLLAKFSDSFCATSAEVELLTDGWERLRSWPDVPSGLEQLRSKYLVAALTNADFSAIVNVGRSAKLQWDAVLSAQLFGAYKPHRSTYEGAATLLGIAPSEILMVASHAYDLEAAREVGAGTAYVRRPLEYGPTGRTEDVPDGRFDFLVDSISELADQLGCPRLGGTAGID
- enzymatic activity relative to the optimum enzyme activity [1]: more than 80%

— patent US6379938B1, “Epoxide hydrolase” (Puratos N.V., priority 1997, dated 2002)
